Data taken from patent publication US20050208039A1.

Molecular target: 158P1D7 receptor on HUVEC cells (unidentified)
Test: flow cytometry on HUVEC cells; bound ECD detected with anti-158P1D7-PE (MAb M15/X68.2.22 at 1 ug/ml and anti-mouse-PE); by the order of the key, 2.88% is taken as the sample 'HUVEC No ECD' and 6.53% as 'HUVEC 158P1D7 ECD' [panel printed as Fig. 34A]

% gated: 6.53%
Substance: Recombinant extracellular domain (ECD) of 158P1D7 (amino acids 16-608) (from UniProt Q9H5Y7 16-608)
